Measurements taken from article PMC8199036, “Improved Tumor-Targeting with Peptidomimetic Analogs of Minigastrin ^177Lu-PP-F11N” (Cancers, 2021).
Where two headings read alike, the source gives them in different places. Residues, ends and D or L forms follow the SMILES beside them.

Assays:
[1] = biodistribution in mice with CCK2R-positive xenografts; type: in vivo, female CD1-nu mice; conditions: female, CD1-nu, mouse, total radioactivity; for tissue uptake at 4 h / tissue uptake at 24 h / tissue uptake at 1 h: in vivo
Procedure: (§1) Procedures for biodistribution studies with ^177Lu-labeled conjugates (10 pmol, 100 µL, 0.1 µM in PBS, 0.5 MBq, 1 µg/kg) in female CD1-nu mice with xenografts of A431-CCK2R cells at 1, 4, and 24 h p.i., as well as blocking experiments at 4 h p.i. with a 6000-fold excess of minigastrin have been reported previously and were followed without modifications. Statistical analysis was performed via GraphPad Prism using two-sided analysis of variance. n = 4 animals per group.

[2] = system: xenografts of A431-CCK2R cells; assay: as above; type: in vivo, female CD1-nu mice
Procedure: as §1

[3] = 10 pmol, Stomach (CCK2R-positive) uptake
[4] = 10 pmol, Tumor (CCK2R-positive) uptake
[5] = tumor / blood, 10 pmol, read-out: Tumor-to-Blood ratio
[6] = tumor / kidneys, 10 pmol, read-out: Tumor-to-Kidneys ratio
[7] = tumor / muscle, 10 pmol, read-out: Tumor-to-Muscle ratio
[8] = tumor / stomach, 10 pmol, read-out: Tumor-to-Stomach ratio
[9] = female, CD1-nu, mouse, in vivo, 10 pmol, 4 h

SMILES: CCCC[C@H](NC(=O)[C@H](Cc1c[nH]c2ccccc12)NC(=O)Cn1cc([C@H](Cc2ccc(O)cc2)NC(=O)[C@H](C)NC(=O)[C@@H](CCC(=O)O)NC(=O)[C@@H](CCC(=O)O)NC(=O)[C@@H](CCC(=O)O)NC(=O)[C@@H](CCC(=O)O)NC(=O)[C@@H](CCC(=O)O)NC(=O)[C@@H](CCC(=O)O)NC(=O)CN2CCN(CC(=O)O)CCN(CC(=O)O)CCN(CC(=O)O)CC2)nn1)C(=O)N[C@@H](CC(=O)O)C(=O)N[C@@H](Cc1ccccc1)C(N)=O [NMG 2, DOTA-(DGlu)6-Ala-Tyr-Ψ[Tz]-Gly-Trp-Nle-Asp-Phe-NH2] (HELM PEPTIDE1{[O=C(O)CN1CCN(CC(=O)O)CCN(CC(=O)[*:2])CCN(CC(=O)O)CC1].[dE].[dE].[dE].[dE].[dE].[dE].A.[O=C(Cn1cc([C@H](Cc2ccc(O)cc2)N[*:1])nn1)[*:2]].W.[Nle].D.F.[am]}$$$$V2.0)
- tissue uptake at 4 h ([1]; 10 pmol, Blood uptake): 0.01 %ID/g
- tissue uptake at 24 h ([1]; 10 pmol, Blood uptake): < 0.01 %ID/g
- tissue uptake at 1 h ([1]; 10 pmol, Bone uptake): 0.29 %ID/g
- tissue uptake at 4 h ([1]; 10 pmol, Bone uptake): 0.1 %ID/g
- tissue uptake at 24 h ([1]; 10 pmol, Bone uptake): 0.07 %ID/g
- tissue uptake at 1 h ([1]; 10 pmol, Heart uptake): 0.07 %ID/g
- tissue uptake at 4 h ([1]; 10 pmol, Heart uptake): 0.02 %ID/g
- tissue uptake at 24 h ([1]; 10 pmol, Heart uptake): 0.01 %ID/g
- tissue uptake at 1 h ([1]; 10 pmol, Intestines uptake): 0.15 %ID/g
- tissue uptake at 4 h ([1]; 10 pmol, Intestines uptake): 0.07 %ID/g
- tissue uptake at 24 h ([1]; 10 pmol, Intestines uptake): 0.06 %ID/g
- tissue uptake at 1 h ([1]; 10 pmol, Kidneys uptake): 2.19 %ID/g
- tissue uptake at 4 h ([1]; 10 pmol, Kidneys uptake): 2.07 %ID/g
- tissue uptake at 24 h ([1]; 10 pmol, Kidneys uptake): 1.33 %ID/g
- tissue uptake at 1 h ([1]; 10 pmol, Liver uptake): 0.11 %ID/g
- tissue uptake at 4 h ([1]; 10 pmol, Liver uptake): 0.05 %ID/g
- tissue uptake at 24 h ([1]; 10 pmol, Liver uptake): 0.03 %ID/g
- tissue uptake at 1 h ([1]; 10 pmol, Lung uptake): 0.18 %ID/g
- tissue uptake at 4 h ([1]; 10 pmol, Lung uptake): 0.04 %ID/g
- tissue uptake at 24 h ([1]; 10 pmol, Lung uptake): 0.02 %ID/g
- tissue uptake at 1 h ([1]; 10 pmol, Muscle uptake): 0.05 %ID/g
- tissue uptake at 4 h ([1]; 10 pmol, Muscle uptake): 0.01 %ID/g
- tissue uptake at 24 h ([1]; 10 pmol, Muscle uptake): 0.01 %ID/g
- tissue uptake at 1 h ([1]; 10 pmol, Pancreas uptake): 0.33 %ID/g
- tissue uptake at 4 h ([1]; 10 pmol, Pancreas uptake): 0.28 %ID/g
- tissue uptake at 24 h ([1]; 10 pmol, Pancreas uptake): 0.17 %ID/g
- tissue uptake at 1 h ([1]; 10 pmol, Spleen uptake): 0.06 %ID/g
- tissue uptake at 4 h ([1]; 10 pmol, Spleen uptake): 0.03 %ID/g
- tissue uptake at 24 h ([1]; 10 pmol, Spleen uptake): 0.02 %ID/g
- tissue uptake at 1 h [1, 3]: 2.85 %ID/g
- tissue uptake at 4 h [1, 3]: 2.66 %ID/g
- tissue uptake at 24 h [1, 3]: 1.63 %ID/g
- tissue uptake at 1 h [1, 4]: 5.94 %ID/g
- tissue uptake at 4 h [1, 4]: 7.15 %ID/g
- tissue uptake at 24 h [1, 4]: 4.73 %ID/g
- tissue uptake at 4 h ([1]; Blood uptake): 0.01 %ID/g
- tissue uptake at 4 h ([1]; Heart uptake): 0.02 %ID/g
- tissue uptake at 4 h ([1]; Intestines uptake): 0.1 %ID/g
- tissue uptake at 4 h ([1]; Kidneys uptake): 2.24 %ID/g
- tissue uptake at 4 h ([1]; Liver uptake): 0.06 %ID/g
- tissue uptake at 4 h ([1]; Lung uptake): 0.04 %ID/g
- tissue uptake at 4 h ([1]; Pancreas uptake): 0.06 %ID/g
- tissue uptake at 4 h ([1]; Spleen uptake): 0.03 %ID/g
- tissue uptake at 4 h ([1]; Stomach (CCK2R-positive) uptake): 0.46 %ID/g
- tissue uptake at 4 h ([1]; Tumor (CCK2R-positive) uptake): 2.54 %ID/g
- tissue to tissue ratio at 1 h [1, 5]: 31.1 ± 10.3
- tissue to tissue ratio at 4 h [1, 5]: 715 ± 133
- tissue to tissue ratio at 24 h [1, 5]: 4260 ± 1690
- tissue to tissue ratio at 1 h [1, 6]: 2.76 ± 0.79
- tissue to tissue ratio at 4 h [1, 6]: 3.5 ± 0.54
- tissue to tissue ratio at 24 h [1, 6]: 3.78 ± 1.48
- tissue to tissue ratio at 1 h [1, 7]: 124 ± 42.1
- tissue to tissue ratio at 4 h [1, 7]: 715 ± 133
- tissue to tissue ratio at 24 h [1, 7]: 441 ± 73.7
- tissue to tissue ratio at 1 h [1, 8]: 2.68 ± 1.57
- tissue to tissue ratio at 4 h [1, 8]: 3.08 ± 1.1
- tissue to tissue ratio at 24 h [1, 8]: 3.13 ± 1.28
- Tumor washout: tumor uptake relative to 1h ([2]; 4 h): 120%
- Tumor washout: tumor uptake relative to 1h ([2]; 24 h): 80%
- Bone uptake [2, 9]: 0.09 % i.A./g
- Muscle uptake [2, 9]: 0.02 % i.A./g
